Results taken from patent publication US20170101466A1.

Assays:
[1] = target: soluble human BLyS (human) (UniProt Q9Y275); experiment: DELFIA competition, Eu-hBLyS binding to coated TACI
[2] = target: soluble mouse BLyS (mouse) (UniProt Q9WU72); experiment: DELFIA competition, Eu-mBLyS binding to coated BR3
[3] = target: soluble mouse BLyS (mouse) (UniProt Q9WU72); experiment: DELFIA competition, Eu-mBLyS binding to coated TACI
[4] = target: soluble human BLyS (human) (UniProt Q9Y275); experiment: DELFIA competition, Eu-hBLyS binding to coated BCMA
[5] = target: soluble human BLyS (human) (UniProt Q9Y275); experiment: DELFIA competition, Eu-hBLyS binding to coated BR3
[6] = target: soluble mouse BLyS (mouse) (UniProt Q9WU72); experiment: DELFIA competition, Eu-mBLyS binding to coated BCMA

IC50 [1] [nM] | IC50 [2] [nM] | IC50 [3] [nM] | IC50 [4] [nM] | IC50 [5] [nM] | IC50 [6] [nM] | Substance
< 0.0003 | 0.147 | < 0.0003 | < 0.0003 | 0.0093 | 0.0115 | AMG623
0.0127 | 0.515 | 0.0158 | 0.112 | 0.159 | 0.784 | TACI-Ig (Fc fusion)
